Measurements: the supplement of paper PMC9112550, “Optimization of the antimicrobial peptide Bac7 by deep mutational scanning” (BMC Biology, 2022)

Test system: Escherichia coli TOP10
Experiment: shrunken log2 fold change of peptide-encoding DNA abundance (4.5 h post-induction vs induction); higher = less antimicrobial activity (less host growth inhibition)
Settings: time post-induction: 4.5 h; library: site-saturation at positions 5, 18, 19, 20
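Further: peptides expressed intracellularly from a pBAD plasmid library in pooled LB shake-flask culture, induced with 0.3% L-arabinose, DNA abundance read by NGS, three biological replicates, DESeq2 with apeglm shrinkage.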

Sequence	shrunken log2 fold change
RRIRVRPPRLPRPRPRPSDFPRP	-0.394
RRIRQRPPRLPRPRPRPSTQPRP	-0.481
RRIRWRPPRLPRPRPRPGIGPRP	0.433
RRIRKRPPRLPRPRPRPMDEPRP	0.966
RRIRNRPPRLPRPRPRPQCAPRP	-0.0727
RRIRRRPPRLPRPRPRPTDTPRP	-0.11
RRIRTRPPRLPRPRPRPQNVPRP	0.0194
RRIRHRPPRLPRPRPRPKWWPRP	0.0178
RRIRNRPPRLPRPRPRPWKAPRP	-0.0227
RRIRHRPPRLPRPRPRPIAQPRP	-0.0267
RRIRHRPPRLPRPRPRPDHQPRP	0.0561
RRIRDRPPRLPRPRPRPISEPRP	-0.0429
RRIRLRPPRLPRPRPRPSAAPRP	0.419
RRIRHRPPRLPRPRPRPYNSPRP	0.0224
RRIRVRPPRLPRPRPRPCYQPRP	-0.142
RRIRHRPPRLPRPRPRPFSAPRP	-0.186
RRIRQRPPRLPRPRPRPAVIPRP	0.135
RRIRLRPPRLPRPRPRPCHNPRP	0.0575
RRIRFRPPRLPRPRPRPIPQPRP	0.132
RRIRNRPPRLPRPRPRPRFHPRP	0.0377
RRIRMRPPRLPRPRPRPRPSPRP	1.12
RRIRNRPPRLPRPRPRPQGHPRP	-0.296

Sequence	shrunken log2 fold change
RRIRNRPPRLPRPRPRPGETPRP	0.0546
RRIRFRPPRLPRPRPRPWTDPRP	-0.345
RRIRNRPPRLPRPRPRPCLRPRP	-0.0159
RRIRGRPPRLPRPRPRPVIQPRP	0.0682
RRIRKRPPRLPRPRPRPNHYPRP	-0.441
RRIRRRPPRLPRPRPRPCGRPRP	-0.0337
RRIRARPPRLPRPRPRPHTYPRP	-0.126
RRIRFRPPRLPRPRPRPKWNPRP	-0.217
RRIRWRPPRLPRPRPRPHPYPRP	-0.195
RRIRKRPPRLPRPRPRPDWYPRP	-0.149
RRIRVRPPRLPRPRPRPKFMPRP	-0.0954
RRIRIRPPRLPRPRPRPCKGPRP	0.00355
RRIRARPPRLPRPRPRPSLPPRP	0.157
RRIRERPPRLPRPRPRPEQKPRP	-0.017
RRIRDRPPRLPRPRPRPFIEPRP	0.0849
RRIRWRPPRLPRPRPRPNTNPRP	-0.294
RRIRCRPPRLPRPRPRPKSKPRP	-0.338
RRIRKRPPRLPRPRPRPFWVPRP	-0.175
RRIRVRPPRLPRPRPRPSIDPRP	-0.455
RRIRCRPPRLPRPRPRPISVPRP	0.0666
RRIRWRPPRLPRPRPRPVCLPRP	0.311
RRIRGRPPRLPRPRPRPFLTPRP	0.0427

Sequence	shrunken log2 fold change
RRIRDRPPRLPRPRPRPQMLPRP	0.269
RRIRHRPPRLPRPRPRPQHQPRP	-0.192
RRIRRRPPRLPRPRPRPTDFPRP	-0.00455
RRIRVRPPRLPRPRPRPADYPRP	0.0436
RRIRLRPPRLPRPRPRPEVYPRP	0.0314
RRIRLRPPRLPRPRPRPFFFPRP	0.343
RRIRHRPPRLPRPRPRPTHCPRP	-0.000996
RRIRFRPPRLPRPRPRPEWFPRP	0.0431
RRIRLRPPRLPRPRPRPWNDPRP	0.041
RRIRARPPRLPRPRPRPCCLPRP	0.0817
RRIRPRPPRLPRPRPRPYVNPRP	-1.34
RRIRFRPPRLPRPRPRPVTAPRP	-0.0836
RRIRSRPPRLPRPRPRPRMWPRP	0.114
RRIRWRPPRLPRPRPRPIADPRP	0.0247
RRIRLRPPRLPRPRPRPRVAPRP	0.272
RRIRKRPPRLPRPRPRPHNAPRP	0.0979
RRIRVRPPRLPRPRPRPAGYPRP	-0.0144
RRIRYRPPRLPRPRPRPTWQPRP	-0.255
RRIRDRPPRLPRPRPRPMPMPRP	0.0753
RRIRNRPPRLPRPRPRPNMMPRP	-0.25
RRIRLRPPRLPRPRPRPRDAPRP	0.469
RRIRNRPPRLPRPRPRPSNAPRP	-0.343

Sequence	shrunken log2 fold change
RRIRVRPPRLPRPRPRPVEYPRP	-1.63
RRIRNRPPRLPRPRPRPANGPRP	0.0343
RRIRARPPRLPRPRPRPKCQPRP	0.432
RRIRRRPPRLPRPRPRPKWTPRP	-0.149
RRIRKRPPRLPRPRPRPGCKPRP	0.189
RRIRRRPPRLPRPRPRPTAAPRP	1.21
RRIRVRPPRLPRPRPRPEVQPRP	0.148
RRIRPRPPRLPRPRPRPHDVPRP	-0.242
RRIRERPPRLPRPRPRPDIQPRP	3.69
RRIRIRPPRLPRPRPRPEALPRP	0.00934
RRIRERPPRLPRPRPRPAKDPRP	-0.284
RRIRDRPPRLPRPRPRPFDPPRP	-0.119
RRIRSRPPRLPRPRPRPMMCPRP	0.0105
RRIRWRPPRLPRPRPRPIRYPRP	-0.242
RRIRLRPPRLPRPRPRPDGYPRP	0.0385
RRIRCRPPRLPRPRPRPGRPPRP	0.106
RRIRQRPPRLPRPRPRPPPCPRP	0.393
RRIRKRPPRLPRPRPRPSNSPRP	0.13
RRIRLRPPRLPRPRPRPRPPPRP	1.58
RRIRHRPPRLPRPRPRPHDTPRP	-1.08
RRIRKRPPRLPRPRPRPAPFPRP	0.659
RRIRMRPPRLPRPRPRPFRDPRP	0.00601

Sequence	shrunken log2 fold change
RRIRNRPPRLPRPRPRPMPVPRP	-0.139
RRIRRRPPRLPRPRPRPNAQPRP	0.287
RRIRNRPPRLPRPRPRPKPPPRP	0.436
RRIRVRPPRLPRPRPRPAKSPRP	-0.112
RRIRERPPRLPRPRPRPPPWPRP	0.318
RRIRFRPPRLPRPRPRPHFVPRP	-0.176
RRIRGRPPRLPRPRPRPTNNPRP	0.217
RRIRPRPPRLPRPRPRPQNYPRP	-0.395
RRIRDRPPRLPRPRPRPCYMPRP	-0.192
RRIRPRPPRLPRPRPRPSCVPRP	-0.368
RRIRPRPPRLPRPRPRPQSAPRP	1.69
RRIRHRPPRLPRPRPRPVCSPRP	-0.168
RRIRIRPPRLPRPRPRPSSVPRP	-1.03
RRIRNRPPRLPRPRPRPVTMPRP	-0.514
RRIRARPPRLPRPRPRPMLQPRP	0.454
RRIRCRPPRLPRPRPRPDYKPRP	-0.375
RRIRSRPPRLPRPRPRPNGNPRP	-0.384
RRIRLRPPRLPRPRPRPLTEPRP	0.098
RRIRNRPPRLPRPRPRPCLIPRP	-0.018
RRIRQRPPRLPRPRPRPMTKPRP	-0.0865
RRIRMRPPRLPRPRPRPSRAPRP	1.18
